In patent US11286278B2, “DPEP-1 binding agents and methods of use” (Arch Biopartners, Inc., priority 2018, dated 2022):
Ends that are not written are not given here. * marks the point of attachment. Biotin = O=C1N[C@H]2[C@H](CS[C@H]2CCCCC(=O)*)N1

Key:
[1] = Circular dichroism spectroscopy of LSALT peptide and analogs; assay type: physicochemical; parameters: Inducible Helical Structure (50% TFE-benign): unit not given here; conditions: for Inducible Helical Structure (50% TFE-benign) / [θ] (222 nm) 50% TFE / % Inducible Helical Structure (Inducible/50% TFE) / [θ] (222 nm) Benign (No TFE): 222 nm; for % Inducible Helical Structure (Inducible/50% TFE): 50% TFE is considered 100% folded; for [θ] (222 nm) Benign (No TFE): benign buffer (100 mM KCl, 50 mM Na2HPO4/NaH2PO4, pH 7.0)
Method: The physical and chemical properties of protein therapeutics are critical factors that influence the ease of manufacturing, development and clinical use. The LSALT peptide was evaluated in terms of its solubility, aggregation state and stability using a variety of biophysical methods.
In circular dichroism spectroscopy the ellipticity value at 222 nm is a measure of a-helical content. 50% trifluoroethanol is a hydrophobic solvent and induces α-helical structure if the structure can be induced. All of the peptides tested can be induced to adopt α-helical structure. The peptides are random coils in benign conditions (non-denaturing). The buffer conditions were aqueous phosphate, pH 7.0.

[2] = target: T1, DPEP1 (Homo sapiens, UniProt P16444); assay: Alanine-substituted peptide binding to DPEP1 transfected HEK 293 cells, immunofluorescence; parameters: expressed in transfected cells; host or cells: HEK 293; conditions: test peptide at 5 uM, 1 hr at room temperature
T1 sequence (P16444 17-385): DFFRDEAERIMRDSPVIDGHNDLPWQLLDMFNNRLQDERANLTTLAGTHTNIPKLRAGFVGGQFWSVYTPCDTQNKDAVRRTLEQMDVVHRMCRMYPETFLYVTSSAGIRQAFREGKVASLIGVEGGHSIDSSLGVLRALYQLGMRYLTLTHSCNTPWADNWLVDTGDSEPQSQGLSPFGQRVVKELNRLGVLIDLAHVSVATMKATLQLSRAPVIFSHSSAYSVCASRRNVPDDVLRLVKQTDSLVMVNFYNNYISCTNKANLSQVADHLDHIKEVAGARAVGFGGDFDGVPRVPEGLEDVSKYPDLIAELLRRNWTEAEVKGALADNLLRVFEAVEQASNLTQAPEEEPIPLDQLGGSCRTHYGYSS
Method: […] were transfected with DPEP1 or DPEP2, two days prior to assay and were plated onto collagen-coated coverslips one day prior. Then fixed 10 min with 3.7% formaldehyde in PBS, washed 3 times in PBS, incubated with Alanine-substituted test peptide at 5 uM each, 1 hr at room temperature, washed twice with PBS gently, incubated with 1/50 Alexa 568-straptavadin in PBS, 1 hr at room temperature, washed twice with PBS gently and added DAPI Mounted with DAKO Fluorescent mounting media and evaluated for binding under fluorescence microscope.

[3] = target: T2, human membrane dipeptidase (DPEP-1) (Homo sapiens, UniProt P16444); assay: Membrane dipeptidase enzyme activity assay (Gly-D-Phe, fluorometric); assay type: biochemical; conditions: lysates of transfected Cos1 cells, substrate Gly-D-Phe
T2 construct: expressed in transfected cells; host or cells: Cos-1
T2 sequence (P16444 17-385): T1 sequence (P16444 17-385)
Method: 24 hours after transfection, DPEP-1 expressing cells weer reseeded on 24 well collagen coated (neutralized) plates and allowed to grow for 24 hours at 37° C. […] Cells were blocked with FBS/NBSA/Tween in PBS for 30 minutes on ice. […] After incubation, cells were washed with PBS and stained with DAPI for 4 minutes on ice. Cells were again washed with PBS, fixed using 4% paraformaldehyde and immunofluoresence microscopy was performed to assess binding. Proteins from human DPEP-1 transfected cells were isolated after 48 hours using octyl-glucoside/RIPA in the absence of protease inhibitors. […] Proteins from transfected cells were isolated after 48 hours using octyl-glucoside/RIPA lysis buffer and western blot analysis was performed to assess DPEP-1 expression using DPEP-1 antibody (Sigma).
The fluorescence signal generated from the conversion of D-Phe to […] in the presence of D-aminoacidoxidase and peroxidase was measured using a fluorescence plate reader.
Proteins from DPEP-1 transfected cells were isolated after 48 hours using octyl-glucoside/RIPA lysis buffer and western blot analysis was performed to assess DPEP-1 expression using a DPEP-1 specific antibody (Proteintech) (FIG. 24B).

Compound | Inducible Helical Structure (50% TFE-benign) [1] | [θ] (222 nm) 50% TFE [1] | % Inducible Helical Structure (Inducible/50% TFE) [1] | [θ] (222 nm) Benign (No TFE) [1] | binding to DPEP-1 by immunofluorescence (alanine mutants) [2] | inducible α-helical structure (in words) ([1]; 50% trifluoroethanol) | inhibition of human DPEP1 enzymatic activity [3] | inhibition of human DPEP1 enzymatic activity ([3]; listed as penicillamine) | inhibition of human DPEP1 enzymatic activity ([3]; listed as cilastatin)
Bio-LSALTPSPSWLKYKAL-amide (Biotin-LSALTPSPSWLKYKAL-NH2) [Peptide A19] | 77,996 | −153947 | 50.7% | −75952 | – | – | – | – | –
Bio-LSALTPSPSWLKYKGL (Biotin-LSALTPSPSWLKYKGL) [Peptide A15] | 23,450 | −92167 | 25.4% | −68717 | – | – | – | – | –
Bio-LSAATPSPSWLKYKAL [Peptide A4] | 16,397 | −76916 | 21.3% | −60519 | – | – | – | – | –
Bio-LSALTPSPAWLKYKAL [Peptide A9] | 13,436 | −62889 | 21.4% | −49453 | – | – | – | – | –
Bio-LSALTPSPSALKYKAL (Biotin-LSALTPSPSALKYKAL) [Peptide A10] | 9,583 | −35792 | 26.8% | −26209 | – | – | – | – | –
Bio-LSALTPSPSWLKAKAL (Biotin-LSALTPSPSWLKAKAL) [Peptide A13] | 31,488 | −80841 | 39.0% | −49352 | – | – | – | – | –
Bio-LSALTPSPSWLKYKAA (Biotin-LSALTPSPSWLKYKAA) [Peptide A16] | 11,796 | −37070 | 31.8% | −25275 | – | – | – | – | –
LSALTPSPSWLAYKAL [Pos 12] | – | – | – | – | decreased and increased binding to DPEP-1 | – | – | – | –
Bio-LAALTPSPSWLKYKAL [Peptide A2] | 51,374 | −117502 | 43.7% | −66128 | – | significantly enhances inducible α-helical structure | – | – | –
CC(C)(S)[C@@H](N)C(=O)O [Penicillamine] | – | – | – | – | – | – | inhibited the activity | can be inhibited | –
Ac-LSALTPSPSWLKYKAL [Peptide A17] | 17,615 | −74897 | 23.5% | −57282 | – | – | – | – | –
Bio-LSGLTPSPSWLKYKAL [Peptide A3] | 18,865 | −68580 | 27.5% | −49714 | – | – | – | – | –
LSALTPSPSALKYKAL [Pos 10] | – | – | – | – | decreased and increased binding to DPEP-1 | – | – | – | –
Bio-LSALTPSASWLKYKAL [Peptide A8] | 9,444 | −42335 | 22.3% | −32890 | – | – | – | – | –
Bio-LSALTGSPSWLKYKAL [Peptide A6] | 28,435 | −70926 | 40.1% | −42491 | – | – | – | – | –
CC1(C)C[C@@H]1C(=O)N/C(=C\CCCCSC[C@H](N)C(=O)O)C(=O)O [Cilastatin] | – | – | – | – | – | – | inhibited the activity | – | can be inhibited
Bio-LSALTPSPSWLKYAAL (Biotin-LSALTPSPSWLKYAAL) [Peptide A14] | 14,068 | −39862 | 35.3% | −25794 | – | – | – | – | –
Ac-LSALTPSPSWLKYKAL-amide (Ac-LSALTPSPSWLKYKAL-NH2) [Peptide A18] | 40,612 | −78951 | 51.4% | −38340 | – | – | – | – | –
Bio-ASALTPSPSWLKYKAL (Biotin-ASALTPSPSWLKYKAL) [Peptide A1] | 37,752 | −119807 | 31.5% | −82054 | – | – | – | – | –
Bio-LSALTPAPSWLKYKAL [Peptide A7] | 20,988 | −70198 | 29.9% | −49209 | – | – | – | – | –
Bio-LSALTPSPSWLAYKAL (Biotin-LSALTPSPSWLAYKAL) [Peptide A12] | 8,451 | −36742 | 23.0% | −28292 | – | – | – | – | –
Bio-LSALAPSPSWLKYKAL [Peptide A5] | 29,755 | −79198 | 37.6% | −49443 | – | – | – | – | –
ASALTPSPSWLKYKAL [Pos 1] | – | – | – | – | decreased and increased binding to DPEP-1 | – | – | – | –
LSALAPSPSWLKYKAL [Pos 5] | – | – | – | – | decreased and increased binding to DPEP-1 | – | – | – | –
Bio-LSALTPSPSWAKYKAL (Biotin-LSALTPSPSWAKYKAL) [Peptide A11] | 21,682 | −80196 | 27.0% | −58514 | – | – | – | – | –
